Data published in US8716557B2.

Assays:
[1] = biological target: CD30 expressed on L540 cells (Homo sapiens (Human)) (UniProt P28908)
[2] = biological target: FcγRIIIa Phe/Phe^158 on human effector cells (human) (UniProt P08637)
[3] = biological target: CD30 expressed on L540 cells (Homo sapiens (Human)) (UniProt P28908); assay: flow cytometry on CD30-expressing L540 cells, FITC-labeled goat anti-human secondary

Chain of UniProt P28908 (P28908 19-595 limits assumed): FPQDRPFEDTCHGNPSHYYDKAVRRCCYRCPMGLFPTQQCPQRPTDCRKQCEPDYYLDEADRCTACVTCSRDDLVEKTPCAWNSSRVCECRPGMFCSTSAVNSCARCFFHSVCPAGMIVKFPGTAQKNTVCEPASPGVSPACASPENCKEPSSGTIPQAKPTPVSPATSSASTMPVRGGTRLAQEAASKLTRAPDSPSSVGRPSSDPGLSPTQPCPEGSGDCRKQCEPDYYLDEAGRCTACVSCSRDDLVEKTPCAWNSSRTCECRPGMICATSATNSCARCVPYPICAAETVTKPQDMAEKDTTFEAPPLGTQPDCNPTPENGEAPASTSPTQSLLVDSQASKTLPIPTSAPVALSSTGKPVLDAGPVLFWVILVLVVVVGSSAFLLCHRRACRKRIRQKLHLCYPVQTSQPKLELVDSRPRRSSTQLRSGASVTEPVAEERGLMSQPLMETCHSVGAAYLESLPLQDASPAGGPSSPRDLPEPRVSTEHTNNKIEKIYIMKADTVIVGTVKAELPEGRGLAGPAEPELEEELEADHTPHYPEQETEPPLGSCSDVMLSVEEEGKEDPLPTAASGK

ADCC, maximal percent cell lysis (heterozygous FcγRIIIa Phe/Val^158 effector cells) [1]	ADCC, maximal percent cell lysis (homozygous FcγRIIIa Phe/Phe^158 effector cells) [2]	EC50 [3]	ADCC EC50, times lower than MDX-060 CHO (FcγRIIIa Val/Phe^158 effector cells) [1]	ADCC EC50, times lower than MDX-060 LEX (FcγRIIIa Val/Phe^158 effector cells) [1]	ADCC EC50, times lower than MDX-060 CHO (FcγRIIIa Phe/Phe^158 effector cells) [2]	Substance
31%	15%	0.18 µg/mL	–	–	–	MDX-060 CHO (antibody)
31%	27%	0.227 µg/mL	–	–	–	MDX-060 LEX (antibody)
–	–	0.196 µg/mL	5 times lower	3 times lower	3 times lower	MDX-060 LEX^Opt (antibody)
